This is an account of results in US20240383953A1 (BAYLOR COLLEGE OF MEDICINE, published 2024).

The series concerns the molecule itself. The series is described as follows: DSSO chemical crosslinking in HEK 293T cells. An excerpt: Applicant tested if endogenous NANOG could spontaneously assemble in H9 human embryonic stem cells (ESCs) as well as nucleofected NANOG in differentiated HEK 293T mammalian cells.

B1: NANOG ΔWR deletion mutant expressed in HEK 293T cells (other, human, UniProt Q9H9S0 1-305, looked up)
chain: MSVDPACPQSLPCFEASDCKESSPMPVICGPEENYPSLQMSSAEMPHTETVSPLPSSMDLLIQDSPDSSTSPKGKQPTSAEKSVAKKEDKVPVKKQKTRTVFSSTQLCVLNDRFQRQKYLSLQQMQELSNILNLSYKQVKTWFQNQRMKSKRWQKNNWPKNSNGVTQKASAPTYPSLYSSYHQGCLVNPTGNLPMYNCGEESLQSCMQFQPNSPASDLEAALEAAGEGLNVIQQTTRYFSTPQTMDLFLNYSMNMQPEDV
notes: whole, on cells; also called WR mutants
Regarding B1, the binding result is on record as “no binding”.
